Results on 1 molecule are retold here after PMC4048323 (Nature medicine, 2014).

In this assay the target is T1, mouse Ebi3 subunit of recombinant IL-35, V5-His-tagged (mouse, UniProt O35228 19-228).
T1 sequence: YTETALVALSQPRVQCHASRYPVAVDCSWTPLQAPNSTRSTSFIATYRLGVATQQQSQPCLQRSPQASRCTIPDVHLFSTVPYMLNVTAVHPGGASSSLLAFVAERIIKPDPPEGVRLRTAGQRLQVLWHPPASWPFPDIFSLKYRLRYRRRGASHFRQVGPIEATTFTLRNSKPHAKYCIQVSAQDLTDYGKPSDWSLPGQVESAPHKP
Description: co-IP.

B1: mouse IL-12p35 (p35) subunit of recombinant IL-35, Flag-tagged (natural protein)
chain: RVIPVSGPARCLSQSRNLLKTTDDMVKTAREKLKHYSCTAEDIDHEDITRDQTSTLKTCLPLELHKNESCLATRETSSTTRGSCLPPQKTSLMMTLCLGSIYEDLKMYQTEFQAINAALQNHNHQQIILDKGMLVAIDELMQSLNHNGETLRQKPPVGEADPYRVKMKLCILLHAFSTRVVTINRVMGYLSSA
Take B1: the binding result is reported as “binds”.
